Laboratory results taken from patent US5622932A (Eli Lilly and Company, priority 1995, dated 1997).

Columns and labels:
[1] = biological target: T1, insulin receptor (Homo sapiens, UniProt P06213); assay: Insulin radioreceptor assay (displacement of [125I] ligand from human placental membranes); format: binding; conditions: relative to b,a (insulin) = 100; human placental membrane, 24 hours at 4° C., from EC50 values
T1 construct: 30-50 μg of human placental membrane protein was incubated; from tissue; host or cells: human placental membranes
Protocol: (§1) 67:194-197. Briefly, 30-50 μg of human placental membrane protein was incubated with approximately 10 femtomoles of [^125 I] ligand in a final volume of 500 μl of 100 mM HEPES, pH 7.8, 120 mM NaCl, 5 mM KCl, 1.2 mM MgSO4, 8 mM glucose and 0.25% BSA for 24 hours at 4° C. Membranes were collected on glass fiber filters pre-treated with 0.1% polyethyleneimine by using a cell harvester (Skatron, Lier, Norway). Binding data were analyzed by fitting displacement curves to a four parameter model employing Prefit/Allfit® software for the determination of EC50 values.

[2] = biological target: T2, IGF-1 receptor (Homo sapiens, UniProt P08069); assay: IGF-1 radioreceptor assay (displacement of [125I] ligand from human placental membranes); format: binding; conditions: relative to BCAD (IGF-1) = 100; human placental membrane, 24 hours at 4° C., from EC50 values
T2 construct: 30-50 μg of human placental membrane protein was incubated; from tissue; host or cells: human placental membranes
Protocol: as §1

| % INSULIN POTENCY [1] | % IGF-1 POTENCY [2] | Substance |
| --- | --- | --- |
| 1.2% | – | IGF-1 [BCAD (IGF-1)] |
| – | 0.37% | insulin [b,a (insulin)] |
| – | < 0.1% | proinsulin [bca (proinsulin)] |
